In this data set the target is T1, VexR-MBP (Vibrio cholerae O1 El Tor N16961) (UniProt Q9KVI0).
T1 sequence: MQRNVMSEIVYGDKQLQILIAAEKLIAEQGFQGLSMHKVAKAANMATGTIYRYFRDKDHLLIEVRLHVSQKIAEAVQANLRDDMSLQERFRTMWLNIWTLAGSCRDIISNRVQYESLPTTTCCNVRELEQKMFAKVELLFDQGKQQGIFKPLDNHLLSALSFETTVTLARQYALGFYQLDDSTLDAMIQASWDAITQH
Kind of data set: EMSA.

As for “GCGGGAGTCGGCAGCGGCCGTACACTATTTCAGACATCACATTTCTCTGCAAATGAACGGTTGTTCATTATAGCGGCTAATACCCCCTGTTTTGCACGCTGCCGACTCCCGC (double strand) [vexR2]”, the binding entry is recorded as “binds”.

As to “GCGGGAGTCGGCAGCGATAATAATCCGCTCACCGAGGATTACCAACAAAGAAACTGCCTTTACAAAAATTTACTGCACAAGTGTATTGCAAAACAGGGGCGCTGCCGACTCCCGC (double strand) [vexR1]”, the binding result is recorded as “no binding”.
